B1: FtsZ (E. coli cell division protein, tubulin-like GTPase) (natural protein, UniProt P0A9A6 1-383, looked up)
chain: MFEPMELTNDAVIKVIGVGGGGGNAVEHMVRERIEGVEFFAVNTDAQALRKTAVGQTIQIGSGITKGLGAGANPEVGRNAADEDRDALRAALEGADMVFIAAGMGGGTGTGAAPVVAEVAKDLGILTVAVVTKPFNFEGKKRMAFAEQGITELSKHVDSLITIPNDKLLKVLGRGISLLDAFGAANDVLKGAVQGIAELITRPGLMNVDFADVRTVMSEMGYAMMGSGVASGEDRAEEAAEMAISSPLLEDIDLSGARGVLVNITAGFDLRLDEFETVGNTIRAFASDNATVVIGTSLDPDMNDELRVTVVATGIGMDKRPEITLVTNKQVQQPVMDRYQQHGMAPLTQEQKPVAKVVNDNAPQTAKEPDYLDIPAFLRKQAD
modifications: tracer fraction only (10-50 nM in 10 uM unlabeled FtsZ): Alexa Fluor 488 succinimidyl ester at the amino groups, 0.4-0.5 mol of dye per mole of protein
notes: FtsZ, E. coli; it is kept as the same molecule; Polymers were triggered with GTP; also called FtsZ-GTP; FtsZ polymers
B2: SlmA (E. coli nucleoid occlusion protein), bound to its DNA site SBS (natural protein, UniProt P0C093 1-198, looked up)
chain: MAEKQTAKRNRREEILQSLALMLESSDGSQRITTAKLAASVGVSEAALYRHFPSKTRMFDSLIEFIEDSLITRINLILKDEKDTTARLRLIVLLLLGFGERNPGLTRILTGHALMFEQDRLQGRINQLFERIEAQLRQVLREKRMREGEGYTTDETLLASQILAFCEGMLSRFVRSEFKYRPTDDFDARWPLIAAQLQ
notes: SlmA, E. coli; the DNA is not a chain; also called SlmA-SBS; SlmA nucleoprotein complexes

Key:
[1] = biological target: the molecule itself; assay: fluorescence correlation spectroscopy; FtsZ 10 uM (10 nM FtsZ-Alexa 488 as tracer), with 2 mM GTP and regeneration system against no GTP; dilute solution buffer; self-association into polymers
[2] = biological target: B1; assay: fluorescence polarisation; fluorescence anisotropy binding titration in solution: SlmA (1 uM) and SBS-Fl (10 nM) with increasing concentrations of FtsZ, right after 2 mM GTP; with or without 20 uM FZ95 or FZ100; 25 C; 50 mM Tris-HCl pH 7.5, 300 mM KCl, 5 mM MgCl2; 1:1 model, apparent parameters; conditions: both partners purified

Row | binding result [2] | Binder | binding result [1]
1 |  | B1 | binds
2 | binds | B2 | 
